Assay results as given in patent US20140087995A1 (published 2014).
Numbered stars: 1 amine (or outer) side, 2 acyl side, 3 side chain; on linkers, the order of the positions; unused ones are H or OH. Bridge positions count the residues as written; N and C are the ends. Side chains are listed from the residue outwards. Ends that are not written are not given here. * marks the point of attachment. C20 diacid = O=C(O)CCCCCCCCCCCCCCCCCCC(=O)*; γGlu = O=C(O)[C@H](CCC(=O)[*:2])N[*:1]; AEEA = NCCOCCOCC(=O)O

T1: human calcitonin receptor (human, UniProt P30988 25-474)
T1 construct: whole, on cells; Assay used cell membranes, not intact cells; also called hCTR; hCT
T1 sequence (looked up): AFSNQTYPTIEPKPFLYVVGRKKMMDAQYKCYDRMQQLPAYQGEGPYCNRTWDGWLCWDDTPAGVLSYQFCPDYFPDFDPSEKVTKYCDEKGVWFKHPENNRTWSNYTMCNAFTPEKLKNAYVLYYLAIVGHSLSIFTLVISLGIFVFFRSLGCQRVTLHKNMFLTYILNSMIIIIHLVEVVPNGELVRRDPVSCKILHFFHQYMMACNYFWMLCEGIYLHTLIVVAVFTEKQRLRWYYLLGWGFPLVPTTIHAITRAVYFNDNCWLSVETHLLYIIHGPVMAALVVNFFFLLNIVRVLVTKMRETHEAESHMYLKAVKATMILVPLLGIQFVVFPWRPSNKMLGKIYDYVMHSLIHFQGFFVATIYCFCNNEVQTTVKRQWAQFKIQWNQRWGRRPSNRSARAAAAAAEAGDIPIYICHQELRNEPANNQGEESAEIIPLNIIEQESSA

T2: human amylin receptor (amylin 3(a) receptor: human calcitonin receptor with RAMP-3) (human, UniProt P30988 25-474; O60896 24-148)
T2 construct: whole, on cells; Assay used cell membranes of the Amylin 3(a)/CRE-luc BHK cells, not intact cells; also called hAmylin-R; hAmylinR
T2 sequence (looked up) 1: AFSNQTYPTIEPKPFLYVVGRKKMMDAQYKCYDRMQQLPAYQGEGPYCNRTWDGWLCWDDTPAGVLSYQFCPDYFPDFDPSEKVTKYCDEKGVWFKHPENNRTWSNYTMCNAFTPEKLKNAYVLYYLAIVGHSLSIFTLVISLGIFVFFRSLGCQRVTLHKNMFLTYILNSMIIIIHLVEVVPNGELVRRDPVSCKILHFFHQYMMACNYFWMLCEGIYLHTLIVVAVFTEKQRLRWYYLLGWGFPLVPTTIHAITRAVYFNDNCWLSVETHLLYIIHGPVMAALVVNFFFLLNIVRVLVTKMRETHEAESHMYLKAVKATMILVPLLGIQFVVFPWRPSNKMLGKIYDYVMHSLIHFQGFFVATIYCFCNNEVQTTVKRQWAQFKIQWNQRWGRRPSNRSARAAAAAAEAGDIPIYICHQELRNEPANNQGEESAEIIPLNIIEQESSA
T2 sequence (looked up) 2: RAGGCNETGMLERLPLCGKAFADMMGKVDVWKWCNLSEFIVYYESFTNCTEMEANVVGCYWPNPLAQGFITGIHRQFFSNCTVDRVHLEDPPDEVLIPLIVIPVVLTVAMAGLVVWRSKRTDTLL


Key:
[1] = biological target: T1, human calcitonin receptor; assay: ratio IC50 hCTR / IC50 hAmylin-R (reference: human amylin receptor), SPA competition assays
Procedure: The resulting pellet was resuspended, homogenized and centrifuged (20.000 rpm, 15 min) in a buffer containing 20 mM Na-HEPES and 0.1 mM EDTA (pH 7.4, buffer 2). The resulting pellet was resuspended in buffer 2 and protein concentration was measured (BCA protein Assay, Pierce). The homogenate was kept cold during the whole procedure. The membranes were kept at −80° C. until use. The assay was performed in a 384 well Optiplate (PerkinElmer) in a total volume of 40 ul. Membranes were mixed with SPA beads. Final concentration of membranes 35 ng/μL final and SPA beads was 0.05 mg/well. Test-compounds were dissolved in DMSO and further diluted in assay buffer (50 mM Hepes, pH 7.4, 1 mM CaCl2, 5 mM MgCl₂, 0.1% OA and 0.02% Tween20). […] The final mixture was incubated with shaking at 400 rpm for 120 min at 25° C. prior to centrifugation (1500 rpm, 10 min). Samples were analyzed on TopCounter™ (Packard). The IC₅₀ was calculated using (one site binding competition analysis) GraphPad Prism5 as a measure of receptor affinity.
Membranes were prepared in the following way; the cells were rinsed with PBS and incubated with Versene for approximately 5 min before harvesting. The cells were flushed with PBS and the cell-suspension was centrifuged for 5 min at 1000 rpm. Cells were homogenized (Ultrathurrax) in a buffer containing 20 mM Na-HEPES and 10 mM EDTA (pH 7.4) and centrifuged at 20.000 rpm for 15 min. The resulting pellet was resuspended, homogenized and centrifuged (20.000 rpm, 15 min) in a buffer containing 20 mM Na-HEPES and 0.1 mM EDTA (pH 7.4, buffer 2). The resulting pellet was resuspended in buffer 2 and protein concentration was measured (BCA protein Assay, Pierce). The homogenate was kept cold during the whole procedure. The membranes were kept at −80° C. until use. Assay was performed in a 384 well Optiplate (PerkinElmer) in a total volume of 40 ul. Membranes were mixed with SPA beads.

[2] = biological target: T1, human calcitonin receptor; assay: SPA competition with 125I-calcitonin on membranes of BHK cells with human calcitonin receptor (Assay VII)
Procedure: Membranes were prepared in the following way; the cells were rinsed with PBS and incubated with Versene for approximately 5 min before harvesting. The cells were flushed with PBS and the cell-suspension was centrifuged for 5 min at 1000 rpm. Cells were homogenized (Ultrathurrax) in a buffer containing 20 mM Na-HEPES and 10 mM EDTA (pH 7.4) and centrifuged at 20.000 rpm for 15 min. The resulting pellet was resuspended, homogenized and centrifuged (20.000 rpm, 15 min) in a buffer containing 20 mM Na-HEPES and 0.1 mM EDTA (pH 7.4, buffer 2). The resulting pellet was resuspended in buffer 2 and protein concentration was measured (BCA protein Assay, Pierce). The homogenate was kept cold during the whole procedure. The membranes were kept at −80° C. until use. Assay was performed in a 384 well Optiplate (PerkinElmer) in a total volume of 40 ul. Membranes were mixed with SPA beads. Final concentration of membranes 35 ng/μL final and Final concentration of SPA beads was 0.05 mg/well. Test-compounds were dissolved in DMSO and further diluted in assay buffer (50 mM Hepes, pH 7.4, 1 mM CaCl2, 5 mM MgCl₂, 0.1% OA and 0.02% Tween20). […] The final mixture was incubated for 120 min with shaking at 400 rpm at 25° C. prior to centrifugation (1500 rpm, 10 min). Samples were analyzed on TopCounter™ (Packard). The […] was calculated using (one site binding competition analysis) GraphPad Prism5 as a measure of receptor affinity.

[3] = biological target: T2, human amylin receptor (amylin 3(a) …); assay: SPA competition with 125I-rat amylin on membranes of BHK cells with human calcitonin receptor and RAMP-3 (Assay V)
Procedure: The binding assay was performed using scintillation proximity assay (SPA) beads (RPNQ0001) from PerkinElmer and cell membranes from the Amylin 3(a)/CRE-luc cells (as described in Assay (II)) were used. Membranes were prepared in the following way; the cells were rinsed with PBS and incubated with Versene for approximately 5 min before harvesting. The cells were flushed with PBS and the cell-suspension was centrifuged for 5 min at 1000 rpm. Cells were homogenized (ultrathurrax) in a buffer containing 20 mM Na-HEPES and 10 mM EDTA (pH 7.4) and centrifuged at 20.000 rpm for 15 min. The resulting pellet was resuspended, homogenized and centrifuged (20.000 rpm, 15 min) in a buffer containing 20 mM Na-HEPES and 0.1 mM EDTA (pH 7.4, buffer 2). The resulting pellet was resuspended in buffer 2 and protein concentration was measured (BCA protein Assay, Pierce). The homogenate was kept cold during the whole procedure. The membranes were kept at −80° C. until use. The assay was performed in a 384 well Optiplate (PerkinElmer) in a total volume of 40 ul. Membranes were mixed with SPA beads. Final concentration of membranes 35 ng/μL final and SPA beads was 0.05 mg/well. Test-compounds were dissolved in DMSO and further diluted in assay buffer (50 mM Hepes, pH 7.4, 1 mM CaCl2, 5 mM MgCl₂, 0.1% OA and 0.02% Tween20). […] The final mixture was incubated with shaking at 400 rpm for 120 min at 25° C. prior to centrifugation (1500 rpm, 10 min). Samples were analyzed on TopCounter™ (Packard). The IC₅₀ was calculated using (one site binding competition analysis) GraphPad Prism5 as a measure of receptor affinity.

Row | Binder | Ratio hCT/hAmylin binding [1] | IC50 [2] [nM] | IC50 [3] [nM]
1 | K([AEEA-AEEA-γGlu-C20 diacid])CNTATCATQRLANFLRHSSPNFGAIPSSTNVGRNTY-NH2 (disulfide 2-7; N-terminus assumed; SMILES CC[C@H](C)[C@H](NC(=O)[C@H](C)NC(=O)CNC(=O)[C@H](Cc1ccccc1)NC(=O)[C@H](CC(N)=O)NC(=O)[C@@H]1CCCN1C(=O)[C@H](CO)NC(=O)[C@H](CO)NC(=O)[C@H](Cc1c[nH]cn1)NC(=O)[C@H](CCCNC(=N)N)NC(=O)[C@H](CC(C)C)NC(=O)[C@H](Cc1ccccc1)NC(=O)[C@H](CC(N)=O)NC(=O)[C@H](C)NC(=O)[C@H](CC(C)C)NC(=O)[C@H](CCCNC(=N)N)NC(=O)[C@H](CCC(N)=O)NC(=O)[C@@H](NC(=O)[C@H](C)NC(=O)[C@@H]1CSSC[C@H](NC(=O)[C@@H](N)CCCCNC(=O)COCCOCCNC(=O)COCCOCCNC(=O)CC[C@H](NC(=O)CCCCCCCCCCCCCCCCCCC(=O)O)C(=O)O)C(=O)N[C@@H](CC(N)=O)C(=O)N[C@@H]([C@@H](C)O)C(=O)N[C@@H](C)C(=O)N[C@@H]([C@@H](C)O)C(=O)N1)[C@@H](C)O)C(=O)N1CCC[C@H]1C(=O)N[C@@H](CO)C(=O)N[C@@H](CO)C(=O)N[C@H](C(=O)N[C@@H](CC(N)=O)C(=O)N[C@H](C(=O)NCC(=O)N[C@@H](CCCNC(=N)N)C(=O)N[C@@H](CC(N)=O)C(=O)N[C@H](C(=O)N[C@@H](Cc1ccc(O)cc1)C(N)=O)[C@@H](C)O)C(C)C)[C@@H](C)O, also called compound 95) | 63.4 | 61.3 | 0.967
2 | K([AEEA-AEEA-γGlu-C20 diacid])CNTATCATQRLANFLRHSSPNFGAIPSSTNVGHNTY-NH2 (disulfide 2-7; N-terminus assumed; SMILES CC[C@H](C)[C@H](NC(=O)[C@H](C)NC(=O)CNC(=O)[C@H](Cc1ccccc1)NC(=O)[C@H](CC(N)=O)NC(=O)[C@@H]1CCCN1C(=O)[C@H](CO)NC(=O)[C@H](CO)NC(=O)[C@H](Cc1c[nH]cn1)NC(=O)[C@H](CCCNC(=N)N)NC(=O)[C@H](CC(C)C)NC(=O)[C@H](Cc1ccccc1)NC(=O)[C@H](CC(N)=O)NC(=O)[C@H](C)NC(=O)[C@H](CC(C)C)NC(=O)[C@H](CCCNC(=N)N)NC(=O)[C@H](CCC(N)=O)NC(=O)[C@@H](NC(=O)[C@H](C)NC(=O)[C@@H]1CSSC[C@H](NC(=O)[C@@H](N)CCCCNC(=O)COCCOCCNC(=O)COCCOCCNC(=O)CC[C@H](NC(=O)CCCCCCCCCCCCCCCCCCC(=O)O)C(=O)O)C(=O)N[C@@H](CC(N)=O)C(=O)N[C@@H]([C@@H](C)O)C(=O)N[C@@H](C)C(=O)N[C@@H]([C@@H](C)O)C(=O)N1)[C@@H](C)O)C(=O)N1CCC[C@H]1C(=O)N[C@@H](CO)C(=O)N[C@@H](CO)C(=O)N[C@H](C(=O)N[C@@H](CC(N)=O)C(=O)N[C@H](C(=O)NCC(=O)N[C@@H](Cc1c[nH]cn1)C(=O)N[C@@H](CC(N)=O)C(=O)N[C@H](C(=O)N[C@@H](Cc1ccc(O)cc1)C(N)=O)[C@@H](C)O)C(C)C)[C@@H](C)O, also called compound 97) | 104 | 58.9 | 0.568
3 | K([AEEA-AEEA-γGlu-C20 diacid])CNTATCATQRLANFLRHSSPNFGAIPSSTPVGSNTY-NH2 (disulfide 2-7; N-terminus assumed; SMILES CC[C@H](C)[C@H](NC(=O)[C@H](C)NC(=O)CNC(=O)[C@H](Cc1ccccc1)NC(=O)[C@H](CC(N)=O)NC(=O)[C@@H]1CCCN1C(=O)[C@H](CO)NC(=O)[C@H](CO)NC(=O)[C@H](Cc1c[nH]cn1)NC(=O)[C@H](CCCNC(=N)N)NC(=O)[C@H](CC(C)C)NC(=O)[C@H](Cc1ccccc1)NC(=O)[C@H](CC(N)=O)NC(=O)[C@H](C)NC(=O)[C@H](CC(C)C)NC(=O)[C@H](CCCNC(=N)N)NC(=O)[C@H](CCC(N)=O)NC(=O)[C@@H](NC(=O)[C@H](C)NC(=O)[C@@H]1CSSC[C@H](NC(=O)[C@@H](N)CCCCNC(=O)COCCOCCNC(=O)COCCOCCNC(=O)CC[C@H](NC(=O)CCCCCCCCCCCCCCCCCCC(=O)O)C(=O)O)C(=O)N[C@@H](CC(N)=O)C(=O)N[C@@H]([C@@H](C)O)C(=O)N[C@@H](C)C(=O)N[C@@H]([C@@H](C)O)C(=O)N1)[C@@H](C)O)C(=O)N1CCC[C@H]1C(=O)N[C@@H](CO)C(=O)N[C@@H](CO)C(=O)N[C@H](C(=O)N1CCC[C@H]1C(=O)N[C@H](C(=O)NCC(=O)N[C@@H](CO)C(=O)N[C@@H](CC(N)=O)C(=O)N[C@H](C(=O)N[C@@H](Cc1ccc(O)cc1)C(N)=O)[C@@H](C)O)C(C)C)[C@@H](C)O, also called compound 96) | 79.6 | 13.2 | 0.166
